This note sets out measurements from US20240189424A1 (published 2024).

The target in assay [1] is T1, Soluble monomeric B7H6-His (UniProt Q68D85 25-262, limits assumed).
T1 construct: extracellular domain; also called monovalent B7H6; soluble B7H6; not shown: C-terminal Avi-tag and 6xHis-tag
T1 sequence (looked up): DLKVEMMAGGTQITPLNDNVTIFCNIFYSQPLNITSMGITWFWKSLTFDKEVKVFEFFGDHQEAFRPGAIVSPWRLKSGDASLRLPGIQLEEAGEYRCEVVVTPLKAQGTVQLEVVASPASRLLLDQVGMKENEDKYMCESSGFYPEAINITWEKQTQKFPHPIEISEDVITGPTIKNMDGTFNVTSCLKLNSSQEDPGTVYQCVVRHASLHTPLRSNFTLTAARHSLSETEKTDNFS
Kind of assay: BLI, Fc fusion on Protein A tips, monovalent B7H6-His. The protocol: (§1) BioLayer Interferometry (BLI) measurements of affinity KD were obtained using the ForteBio Octet RED96 system as previously described. Briefly, Protein A-coated biosensor tips were “activated” by incubation with 41 nM TZ47-Fc, NKp30-Fc, or CC3-Fc for 10 min to load tips. Binding to soluble B7H6-His were assessed by allowing TZ47-Fc, NKp30-Fc, or CC3-Fc coated tips to equilibrate in PBS+0.1% Tween-20 (PBST) for 5 min, followed by association steps in 200 μL of each antigen at concentrations ranging from 0 to 3000 nM for 10 min, and dissociation steps in 200 µL of PBST for 5 min. Data was analyzed using Octet® System Data Analysis software.
(§2) Clone CC5, which contains only the consensus S82P mutation, along with CC3, which had two additional amino acid substitutions, were chosen for further characterization. To define binding affinities and kinetics with improved resolution, CC3, CC5, NKp30, and TZ47 sequences were expressed recombinantly as Fc fusion proteins. Affinity to monovalent B7H6 was determined by Biolayer Interferometry (BLI). […] The fast on and off rate profile of NKp30 was maintained in the variants despite the increase in overall affinity.

In assay [2] the target is T1, Soluble monomeric B7H6-His. Kind of assay: BLI (Octet RED96), Fc fusion on Protein A tips, monovalent B7H6-His in solution, steady state affinity. The protocol: as §1, §2

Take “CC3-Fc (from UniProt O14931 19-135) (Fc fusion)”: the fold improvement of KD compared to NKp30 in assay [1] was 2 fold. This molecule came in with a Kd in assay [2] of 680 nM.

B1: CC5-Fc (Fc fusion)
chain: LWVSQPPEIRTLEGSSAFLPCSFNASQGRLAIGSVTWFRDEVVPGKEVRNGTPEFRGRLAPLAPSRFLHDHQAELHIRDVRGHDASIYVCRVEVLGLGVGTGNGTRLVVEKEHPQLG
notes: also called clone CC5; not shown: mouse IgG2a Fc domain
On to B1, for which the “fold improvement of KD compared to NKp30” value in assay [1] was determined as 2 fold. This molecule yielded a Kd in assay [2] of 580 nM.

B2: NKp30-Fc (Fc fusion)
chain: LWVSQPPEIRTLEGSSAFLPCSFNASQGRLAIGSVTWFRDEVVPGKEVRNGTPEFRGRLAPLASSRFLHDHQAELHIRDVRGHDASIYVCRVEVLGLGVGTGNGTRLVVEKEHPQLG
notes: Extracellular domain of NKp30 fused to a mouse IgG2a Fc domain, expressed in expi293 HEK cells, bivalent; also called native NKp30; wildtype NKp30; not shown: mouse IgG2a Fc domain
Take B2: the Kd in assay [2] was found to be 1300 nM.
